Experimental data published in publication PMC6085627.

Target: Human TLR4/MD-2 complex (human) (UniProt O00206)
Assay: SPR; Biacore T200; TLR4/MD-2 amine-coupled on CM5 (1100 RU); GST-A-box, GST-B-box (150-5000 nM), A-box or GST injected at 30 μL/min for 60 s, 25 °C, dissociation 1 min; HBS-EP pH 7.4; GST-A-box: association and dissociation fitted separately to a 1:1 model; GST-B-box: steady-state affinity model; apparent KD

Chain of Human TLR4/MD-2 complex (human) (O00206 24-631, chain 1 of 2): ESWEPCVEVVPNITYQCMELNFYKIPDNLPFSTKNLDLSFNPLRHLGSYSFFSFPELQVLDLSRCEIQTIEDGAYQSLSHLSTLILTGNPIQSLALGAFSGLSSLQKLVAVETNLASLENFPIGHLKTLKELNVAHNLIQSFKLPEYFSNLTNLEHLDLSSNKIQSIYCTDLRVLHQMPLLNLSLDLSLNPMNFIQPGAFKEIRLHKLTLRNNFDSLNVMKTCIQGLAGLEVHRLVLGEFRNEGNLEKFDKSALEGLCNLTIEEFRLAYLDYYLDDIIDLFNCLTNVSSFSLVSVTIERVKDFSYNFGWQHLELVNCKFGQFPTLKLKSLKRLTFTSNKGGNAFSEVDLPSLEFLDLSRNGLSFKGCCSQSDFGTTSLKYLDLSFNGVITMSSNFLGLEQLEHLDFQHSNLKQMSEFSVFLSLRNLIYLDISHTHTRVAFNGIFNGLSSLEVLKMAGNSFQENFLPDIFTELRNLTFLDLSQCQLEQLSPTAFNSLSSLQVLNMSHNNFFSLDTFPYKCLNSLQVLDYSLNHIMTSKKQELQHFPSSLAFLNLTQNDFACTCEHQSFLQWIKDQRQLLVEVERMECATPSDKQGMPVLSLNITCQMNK
Chain of Human TLR4/MD-2 complex (human) (Q9Y6Y9 19-160, chain 2 of 2, further chain): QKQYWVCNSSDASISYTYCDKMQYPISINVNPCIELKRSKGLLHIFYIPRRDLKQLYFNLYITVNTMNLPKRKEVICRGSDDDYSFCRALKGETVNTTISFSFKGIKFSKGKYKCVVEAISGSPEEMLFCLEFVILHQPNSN

Kd: 5.78 µM
Substance: Recombinant GST-B-box (domain or fragment)
